The target in assay [1] is human FcγRI (human) (UniProt P12314). The experiment in a line: SPR (Biacore 3000), His-tagged receptor captured on anti-His IgG, antibody injected; steady state fit.
The target of assay [2] is human FcγRIIIa (Example 1) (human) (UniProt P08637). Described as above.
For assay [3], the target named is human FcγRIIa (Example 1, allotype not stated) (human) (UniProt P12318). The assay is described as above.
Assay [4] concerns the target human FcγRI (human) (UniProt P12314). The assay can be described thus: SPR (Biacore 3000), His-tagged receptor captured on anti-His IgG, antibody injected; 1:1 kinetic fit.
Assay [5] addresses human FcγRIIIa (Example 1) (human) (UniProt P08637). The description is as above.

Where only a bound is given, the exact number is not on record here.

human FcγRI (human), sequence (P12314 16-288 limits assumed): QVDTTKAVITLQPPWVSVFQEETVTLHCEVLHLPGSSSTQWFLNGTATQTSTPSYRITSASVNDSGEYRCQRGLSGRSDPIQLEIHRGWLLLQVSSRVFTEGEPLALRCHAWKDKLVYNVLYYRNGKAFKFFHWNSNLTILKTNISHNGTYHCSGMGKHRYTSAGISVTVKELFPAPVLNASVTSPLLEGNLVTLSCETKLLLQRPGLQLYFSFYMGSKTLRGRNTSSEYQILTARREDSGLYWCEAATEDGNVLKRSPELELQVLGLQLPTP
human FcγRIIa (Example 1, allotype not stated) (human), sequence (P12318 36-218 limits assumed): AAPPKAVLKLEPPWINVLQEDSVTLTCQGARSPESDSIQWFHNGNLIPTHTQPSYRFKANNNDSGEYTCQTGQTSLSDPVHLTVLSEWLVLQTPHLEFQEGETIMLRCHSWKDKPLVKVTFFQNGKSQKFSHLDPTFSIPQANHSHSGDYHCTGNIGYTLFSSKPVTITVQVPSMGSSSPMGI
human FcγRIIIa (Example 1) (human), sequence (P08637 17-208 F176V limits assumed): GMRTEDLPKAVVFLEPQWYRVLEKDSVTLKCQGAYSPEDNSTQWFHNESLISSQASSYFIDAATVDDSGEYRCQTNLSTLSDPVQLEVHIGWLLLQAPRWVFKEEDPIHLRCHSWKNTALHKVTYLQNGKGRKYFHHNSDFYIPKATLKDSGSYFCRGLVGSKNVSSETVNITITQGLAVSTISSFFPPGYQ

“huIgG2c4a (H268A, V309L, A330S, P331S) (antibody)”: the dissociation constant (Kd) stood at 160 µM in assay [1], 85 µM in assay [2] and 2.2 µM in assay [3].
In the case of “huIgG2c4d (V234A, G237A, P238S, H268A, V309L, A330S, P331S) (antibody)”, the results for the equilibrium dissociation constant (Kd) in assay [1], in assay [2] and in assay [3] were more than 210 µM, more than 95 µM and more than 170 µM, respectively.
For “huIgG1-Ag (aglycosylated IgG1, N297A) (antibody)” the same measures were 3.7 µM, more than 95 µM and more than 170 µM.
In the case of “huIgG2 (wild type human IgG2 isotype, anti-Her2/neu construct) (antibody)”, the Kd in assay [1] was 120 µM; in assay [2], 41 µM; in assay [3] it was 1 µM.
For “huIgG2c4b (V234A, G237A, H268Q, V309L, A330S, P331S) (antibody)” the same measures were 38 µM, more than 95 µM and 170 µM.
On to “huIgG1 (wild type human IgG1 isotype, anti-Her2/neu construct) (antibody)”, for which the dissociation constant (Kd) worked out at 0.013 µM in assay [4] and 0.7 µM in assay [3].
As for “huIgG2c4e (P233S, V234A, G237A, P238S, H268A, V309L, A330S, P331S) (antibody)”, the Kd was more than 210 µM in assay [1], more than 95 µM in assay [2] and more than 170 µM in assay [3].
On the same counts, the results for “huIgG4 Ala-Ala, Ser-Pro (S228P, F234A, L235A) (antibody)” are 15 µM, 55 µM and 150 µM.
Turning to “huIgG2m4 (H268Q, V309L, A330S, P331S) (antibody)”, the Kd in assay [1] worked out at 210 µM; in assay [2], 95 µM; in assay [3] it was 2.7 µM.
For “huIgG2c4c (V234A, G237A, H268A, V309L, A330S, P331S) (antibody)”, the values for the dissociation constant (Kd) in assay [4], in assay [5] and in assay [3] were 0.044 µM, 0.64 µM and 19 µM, respectively.

Source of the values: US20150337053A1.
